Here are results for two molecules from PMC4525183, “Snf1/AMP-activated protein kinase activates Arf3p to promote invasive yeast growth via a non-canonical GEF domain” (Nature Communications, 2015).

B2: His-Arf3^T31N (natural protein, S. cerevisiae, UniProt P40994 1-183, looked up)
chain: MGNSISKVLGKLFGSKEMKILMLGLDKAGKNTILYKLKLNKIKTSTPTVGFNVETVTYKNVKFNMWDVGGQQRLRPLWRHYFPATTALIFVIDSSARNRMEEAKEELYSIIGEKEMENVVLLVWANKQDLKDAMKPQEVSDFLELEKNLKNQPWCVIGSNALSGQGLVEGLSWISNNTNVPKK
notes: Arf3p, S. cerevisiae; T31N; plasmid pET32a-ARF3 (T31N); pET32a usually adds thioredoxin, His and S tags before the insert

For the test “His-Arf3^T31N”, the target named is B2. Kind of test: pull-down; GST fusions on glutathione-Sepharose 4B beads, His-tagged protein in solution (His-Arf3 loaded with GDP or GTPγS); 50 mM Tris-HCl pH 7.5, 150 mM NaCl, 1% Triton X-100, 1 mM DTT, 10 mM MgCl2; 1 h, 4 °C; anti-His blot. Particulars: both partners purified.
Test [1] addresses T1, GST-Snf1-C (a.a. 311–633) (S. cerevisiae, UniProt P06782 311-633).
T1 construct: Snf1p, S. cerevisiae, C-terminal regulatory domain, a.a; 311–633; Vector pGEX4T-1; also called C-terminal regulatory domain of Snf1p; source: E. coli BL21 (DE3), purified (glutathione-Sepharose 4B)
T1 sequence (looked up): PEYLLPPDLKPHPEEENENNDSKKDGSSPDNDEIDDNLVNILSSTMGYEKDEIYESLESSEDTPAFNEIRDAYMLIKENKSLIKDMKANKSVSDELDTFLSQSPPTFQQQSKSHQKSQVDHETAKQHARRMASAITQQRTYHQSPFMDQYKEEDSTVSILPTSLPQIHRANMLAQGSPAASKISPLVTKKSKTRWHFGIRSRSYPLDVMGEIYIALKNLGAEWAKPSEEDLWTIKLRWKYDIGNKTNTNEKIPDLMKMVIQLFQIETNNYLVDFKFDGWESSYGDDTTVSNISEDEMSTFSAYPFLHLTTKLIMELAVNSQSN
The description is as above. Particulars: both partners purified.

B1: GST-Snf1-C1 (a.a. 392–518) (domain or fragment, S. cerevisiae, UniProt P06782 392-518, looked up)
chain: LIKDMKANKSVSDELDTFLSQSPPTFQQQSKSHQKSQVDHETAKQHARRMASAITQQRTYHQSPFMDQYKEEDSTVSILPTSLPQIHRANMLAQGSPAASKISPLVTKKSKTRWHFGIRSRSYPLDV
notes: Snf1p, S. cerevisiae, a.a; Vector pGEX4T-1; source: E. coli BL21 (DE3), purified (glutathione-Sepharose 4B)
B1: in the test with His-Arf3^T31N, the binding result is “binds”.
As for B2, the binding result in test [1] is “binds”.
